Experimental data reported in US10800813 (Bicycle, dated 2020).
Numbered stars: 1 amine (or outer) side, 2 acyl side, 3 side chain; on linkers, the order of the positions; unused ones are H or OH. Bridge positions count the residues as written; N and C are the ends. Ends that are not written are not given here. TBMB = c1c(C[*:1])cc(C[*:3])cc1C[*:2]

target: T1, biotinylated human plasma Kallikrein (human, UniProt P03952 20-638, biotinylated); test: phage binding assay, signal:background
T1 construct: also called Biotinylated hPK
T1 sequence (P03952 20-638 limits assumed): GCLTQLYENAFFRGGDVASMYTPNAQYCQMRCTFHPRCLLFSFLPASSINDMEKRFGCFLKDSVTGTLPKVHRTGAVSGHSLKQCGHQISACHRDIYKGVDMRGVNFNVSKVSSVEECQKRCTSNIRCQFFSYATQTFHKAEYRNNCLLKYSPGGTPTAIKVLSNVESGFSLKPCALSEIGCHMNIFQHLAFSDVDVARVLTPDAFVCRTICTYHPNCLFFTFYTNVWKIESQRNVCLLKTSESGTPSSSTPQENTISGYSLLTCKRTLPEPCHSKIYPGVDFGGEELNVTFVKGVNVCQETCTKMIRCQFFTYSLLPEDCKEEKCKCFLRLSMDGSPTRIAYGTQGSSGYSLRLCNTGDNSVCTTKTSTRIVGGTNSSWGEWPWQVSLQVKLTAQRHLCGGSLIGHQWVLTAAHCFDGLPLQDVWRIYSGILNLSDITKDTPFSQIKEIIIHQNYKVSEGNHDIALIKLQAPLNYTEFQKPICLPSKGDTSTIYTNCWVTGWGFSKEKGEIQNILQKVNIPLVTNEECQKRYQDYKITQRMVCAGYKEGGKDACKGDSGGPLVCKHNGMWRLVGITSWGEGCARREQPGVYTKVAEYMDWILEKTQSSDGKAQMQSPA
Method: Library transformant colonies, or selection output colonies, were picked and grown as individual cultures in 2TY broth containing selective antibiotic. The picked colonies were DNA-sequenced using a QIAgen PyroMark Q96 DNA sequencer to reveal the amino-acid substitution present in each clone, and were assayed for human plasma Kallikrein binding as follows. The phage-containing supernatant was harvested from the culture and phage were cyclised with tris bromomethyl benzene(TBMB) based on the methods of Heinis et al (Nature Chemical Biology vol. 5 pp 502-507 (2009)). The purified phage from this process were assayed for binding to biotinylated human plasma Kallikrein using a homogeneous plate-based binding assay; assay read-out measured on a BMG Labtech Pherastar FS plate reader. The quantitative binding data from duplicate assay samples was averaged (mean) and expressed as signal:background. […] The assay data was correlated with the peptide sequences.
Selections against human plasma Kallikrein were performed with this library in order to study the non-WPAR (SEQ ID NO: 18) determinants of Kallikrein binding, and to isolate the optimal WPAR (SEQ ID NO: 18)-containing peptide sequence.

Row | Binder | Binding assay signal
1 | CQWPARCMHQDMC (linker 1-7-13 via TBMB (inferred)) [SEQ ID NO 131] | 75
2 | CTWPARCLHQDLC (linker 1-7-13 via TBMB (inferred)) [SEQ ID NO 136] | 73
3 | CQWPARCMHQELC (linker 1-7-13 via TBMB (inferred)) [SEQ ID NO 135] | 73
4 | CNWPARCTHQDLC (linker 1-7-13 via TBMB) [SEQ ID NO 115] | 116
5 | CSWPARCLHTDLC (linker 1-7-13 via TBMB (inferred)) [SEQ ID NO 126] | 83
6 | CAWPARCTHTDLC (linker 1-7-13 via TBMB (inferred)) [SEQ ID NO 120] | 92
7 | CQWPARCTHSDLC (linker 1-7-13 via TBMB (inferred)) [SEQ ID NO 132] | 74
8 | CQWPARCLHTDLC (linker 1-7-13 via TBMB (inferred)) [SEQ ID NO 121] | 91
9 | CHWPARCTHQDLC (linker 1-7-13 via TBMB) [SEQ ID NO 116] | 110
10 | CTWPARCTHADLC (linker 1-7-13 via TBMB (inferred)) [SEQ ID NO 139] | 71
11 | CSWPARCTHDDLC (linker 1-7-13 via TBMB (inferred)) [SEQ ID NO 119] | 93
12 | CPWPARCTHTDLC (linker 1-7-13 via TBMB (inferred)) [SEQ ID NO 141] | 70
13 | CRWPARCTHQDLC (linker 1-7-13 via TBMB (inferred)) [SEQ ID NO 134] | 73
14 | CMWPARCMHQDLC (linker 1-7-13 via TBMB (inferred)) [SEQ ID NO 129] | 79
15 | CAWPARCTHVDLC (linker 1-7-13 via TBMB (inferred)) [SEQ ID NO 127] | 82
16 | CAWPARCTHTDFC (linker 1-7-13 via TBMB (inferred)) [SEQ ID NO 128] | 80
17 | CSWPARCTHSHLC (linker 1-7-13 via TBMB (inferred)) [SEQ ID NO 137] | 72
18 | CLWPARCTHADLC (linker 1-7-13 via TBMB (inferred)) [SEQ ID NO 133] | 74
19 | CPWPARCTHQDLC (linker 1-7-13 via TBMB) [SEQ ID NO 117] | 107
20 | CAWPARCLHDDLC (linker 1-7-13 via TBMB (inferred)) [SEQ ID NO 125] | 84
21 | CHWPARCTHQELC (linker 1-7-13 via TBMB (inferred)) [SEQ ID NO 124] | 85
22 | CLWPARCTHQDLC (linker 1-7-13 via TBMB (inferred)) [SEQ ID NO 122] | 90
23 | CAWPARCTHADLC (linker 1-7-13 via TBMB (inferred)) [SEQ ID NO 130] | 79
24 | CVWPARCTHQDLC (linker 1-7-13 via TBMB (inferred)) [SEQ ID NO 138] | 71
25 | CHWPARCMHQDLC (linker 1-7-13 via TBMB (inferred)) [SEQ ID NO 140] | 71
26 | CSWPARCTHADLC (linker 1-7-13 via TBMB) [SEQ ID NO 118] | 100
27 | CTWPARCTHTDLC (linker 1-7-13 via TBMB (inferred)) [SEQ ID NO 123] | 88

The next lines start with the values.

Row | Binding assay signal | Binder
28 | 63 | CDWPARCMHQEFC (linker 1-7-13 via TBMB (inferred)) [SEQ ID NO 152]
29 | 63 | CAWPARCLHQDWC (linker 1-7-13 via TBMB (inferred)) [SEQ ID NO 151]
30 | 61 | CAWPARCTHQTMC (linker 1-7-13 via TBMB (inferred)) [SEQ ID NO 153]
31 | 59 | CLWPARCLTTELC (linker 1-7-13 via TBMB (inferred)) [SEQ ID NO 157]
32 | 61 | CSWPARCVHQDMC (linker 1-7-13 via TBMB (inferred)) [SEQ ID NO 155]
33 | 66 | CAWPARCLHADMC (linker 1-7-13 via TBMB (inferred)) [SEQ ID NO 150]
34 | 59 | CTWPARCTHQAFC (linker 1-7-13 via TBMB) [SEQ ID NO 160]
35 | 69 | CPWPARCTHQNLC (linker 1-7-13 via TBMB (inferred)) [SEQ ID NO 143]
36 | 58 | CPWPARCLHTDLC (linker 1-7-13 via TBMB) [SEQ ID NO 163]
37 | 59 | CRWPARCTHTDLC (linker 1-7-13 via TBMB) [SEQ ID NO 159]
38 | 68 | CSWPARCIHQDLC (linker 1-7-13 via TBMB (inferred)) [SEQ ID NO 147]
39 | 70 | CAWPARCTHYDLC (linker 1-7-13 via TBMB (inferred)) [SEQ ID NO 142]
40 | 68 | CSWPARCLHTELC (linker 1-7-13 via TBMB (inferred)) [SEQ ID NO 146]
41 | 66 | CAWPARCTHTHLC (linker 1-7-13 via TBMB (inferred)) [SEQ ID NO 149]
42 | 67 | CTWPARCTHTDMC (linker 1-7-13 via TBMB (inferred)) [SEQ ID NO 148]
43 | 60 | CEWPARCLHTDLC (linker 1-7-13 via TBMB (inferred)) [SEQ ID NO 156]
44 | 69 | CAWPARCMHDDLC (linker 1-7-13 via TBMB (inferred)) [SEQ ID NO 145]
45 | 69 | CSWPARCTHTELC (linker 1-7-13 via TBMB (inferred)) [SEQ ID NO 144]
46 | 59 | CSWPARCTHSDLC (linker 1-7-13 via TBMB) [SEQ ID NO 161]
47 | 59 | CSWPARCLHDDLC (linker 1-7-13 via TBMB) [SEQ ID NO 162]
48 | 59 | CSWPARCTHAEMC (linker 1-7-13 via TBMB (inferred)) [SEQ ID NO 158]
49 | 61 | CTWPARCLHQHMC (linker 1-7-13 via TBMB (inferred)) [SEQ ID NO 154]
